{"source": "FireProtDB (doi:10.1021/bi9707180)", "proteins": {"B1": {"name": "Guanyl-specific ribonuclease T1 wild type, P00651 (protein)", "chain": "MMYSKLLTLTTLLLPTALALPSLVERACDYTCGSNCYSSSDVSTAQAAGYQLHEDGETVGSNSYPHKYNNYEGFDFSVSSPYYEWPILSSGDVYSGGSPGADRVVFNENNQLAGVITHTGASGNNFVECT"}}, "details": "Aspergillus oryzae (strain ATCC 42149 / RIB 40), 0 °C, Urea, CD, reversible: yes, whole UniProt chain shown"}
{"protein": "B1", "values": [{"measurement": "denaturant m value", "setting": "pH 2.5, glycine 30 mM", "value": 1.58, "unit": "kcal/mol/M"}, {"measurement": "denaturant midpoint (higher = more stable)", "setting": "pH 2.5, glycine 30 mM", "value": 2.78, "unit": "M"}, {"measurement": "denaturant m value", "setting": "pH 7, MOPS 30 mM", "value": 1.28, "unit": "kcal/mol/M"}, {"measurement": "denaturant midpoint (higher = more stable)", "setting": "pH 7, MOPS 30 mM", "value": 4.32, "unit": "M"}]}
